{
  "source": "paper PMC5887309",
  "binders": {"B1": {"name": "Cy5-labeled 29mer with two CpG sites (dsDNA)", "DNA 1": "ACTTGCAACGGTCCTAACCGTCACCTCTT", "DNA 2": "AAGAGGTGACGGTTAGGACCGTTGCAAGT"}},
  "molecular_target": "DNMT3AC R882H (human, UniProt Q9Y6K1 612-912, R882H)",
  "sequence (Q9Y6K1 612-912 R882H)": "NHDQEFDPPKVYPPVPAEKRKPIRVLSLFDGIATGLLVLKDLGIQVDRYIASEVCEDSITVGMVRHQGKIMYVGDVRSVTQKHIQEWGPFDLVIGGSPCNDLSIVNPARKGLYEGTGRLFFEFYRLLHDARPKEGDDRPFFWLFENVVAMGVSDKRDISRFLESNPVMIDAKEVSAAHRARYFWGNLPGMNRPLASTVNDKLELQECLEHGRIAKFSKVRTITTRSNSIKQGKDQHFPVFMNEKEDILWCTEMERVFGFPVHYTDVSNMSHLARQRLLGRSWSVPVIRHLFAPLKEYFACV",
  "experiment": "fluorescence anisotropy",
  "data": [
    {"binder": "B1", "values": [
      {"measurement": "Kd", "result": "209 ± 19", "unit": "nM"}
    ]}
  ]
}
